Laboratory results reported in article PMC7171158.

Molecular target: NusA-AR2^D443C labeled with fluorescein-5-maleimide (E. coli) (UniProt P0AFF6)
Test: fluorescence polarisation; fluorescence anisotropy; 25 nM fluorescein-labeled NusA-AR2^D443C with increasing unlabeled protein; 25 °C; 50 mM Na-P pH 6.5, 100 mM NaCl, 150 mM glucose, 5 mM DTT, 0.05% Tween; two-state binding model

B1: antiterminator protein Q from phage λ (λQ), full length (natural protein)
chain: MRLESVAKFHSPKSPMMSDSPRATASDSLSGTDVMAAMGMAQSQAGFGMAAFCGKHELSQNDKQKAINYLMQFAHKVSGKYRGVAKLEGNTKAKVLQVLATFAYADYCRSAATPGARCRDCHGTGRAVDIAKTELWGRVVEKECGRCKGVGYSRMPASAAYRAVTMLIPNLTQPTWSRTVKPLYDALVVQCHKEESIADNILNAVTR
For B1, the Kd was 268 µM.

B2: λQ deletion variant lacking 36 residues at the N-terminus (λQ^Δ36) (domain or fragment)
chain: AMGMAQSQAGFGMAAFCGKHELSQNDKQKAINYLMQFAHKVSGKYRGVAKLEGNTKAKVLQVLATFAYADYCRSAATPGARCRDCHGTGRAVDIAKTELWGRVVEKECGRCKGVGYSRMPASAAYRAVTMLIPNLTQPTWSRTVKPLYDALVVQCHKEESIADNILNAVTR
B2 gave a Kd of 271 µM.
